Source: patent US20240052042A1 (Novartis, published 2024)

What was measured:
[1] = target: T1, human NPR3 in the presence of ANP (human, UniProt P17342 27-481; P01160 124-151, limits assumed); experiment: FabCys affinity determination
T1 construct: also called hNPR3 + 100 nM ANP
T1 sequence (looked up): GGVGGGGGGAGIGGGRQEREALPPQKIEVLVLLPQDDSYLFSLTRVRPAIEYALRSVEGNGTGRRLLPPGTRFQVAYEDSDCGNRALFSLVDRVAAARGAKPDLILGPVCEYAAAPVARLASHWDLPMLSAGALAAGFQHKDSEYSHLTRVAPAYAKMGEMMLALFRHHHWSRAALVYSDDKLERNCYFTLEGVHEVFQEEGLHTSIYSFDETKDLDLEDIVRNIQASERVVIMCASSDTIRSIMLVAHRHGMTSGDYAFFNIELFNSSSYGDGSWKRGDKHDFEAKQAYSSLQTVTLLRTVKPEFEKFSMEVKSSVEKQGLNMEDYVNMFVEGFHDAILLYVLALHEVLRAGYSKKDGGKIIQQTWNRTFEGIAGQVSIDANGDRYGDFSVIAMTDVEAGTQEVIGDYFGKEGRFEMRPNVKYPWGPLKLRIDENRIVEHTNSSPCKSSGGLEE
T1 sequence (peptide, looked up): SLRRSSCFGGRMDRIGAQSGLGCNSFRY

[2] = target: T2, human NPR3 (counter target) (human, UniProt P17342 27-481, limits assumed); experiment: FabCys affinity determination
T2 construct: Pannings used hNPR3-hFc; also called hNPR3; hNPR3-hFc
T2 sequence (looked up): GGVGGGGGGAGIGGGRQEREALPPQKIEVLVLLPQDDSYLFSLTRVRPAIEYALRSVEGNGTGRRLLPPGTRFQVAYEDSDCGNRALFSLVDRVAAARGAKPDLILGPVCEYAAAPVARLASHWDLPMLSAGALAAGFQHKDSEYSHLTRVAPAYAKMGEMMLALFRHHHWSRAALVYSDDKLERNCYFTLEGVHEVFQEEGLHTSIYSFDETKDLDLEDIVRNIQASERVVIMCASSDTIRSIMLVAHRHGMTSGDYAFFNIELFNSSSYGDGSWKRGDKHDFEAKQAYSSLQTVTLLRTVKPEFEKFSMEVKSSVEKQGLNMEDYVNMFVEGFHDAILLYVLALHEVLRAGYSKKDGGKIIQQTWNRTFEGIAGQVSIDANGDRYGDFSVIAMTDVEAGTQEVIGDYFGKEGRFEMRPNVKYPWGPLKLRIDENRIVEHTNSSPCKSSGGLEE

[3] = target: T3, human NPR1 on CHO-K1 cells (human, UniProt P16066 33-1061); experiment: cell-based or functional assay
T3 sequence: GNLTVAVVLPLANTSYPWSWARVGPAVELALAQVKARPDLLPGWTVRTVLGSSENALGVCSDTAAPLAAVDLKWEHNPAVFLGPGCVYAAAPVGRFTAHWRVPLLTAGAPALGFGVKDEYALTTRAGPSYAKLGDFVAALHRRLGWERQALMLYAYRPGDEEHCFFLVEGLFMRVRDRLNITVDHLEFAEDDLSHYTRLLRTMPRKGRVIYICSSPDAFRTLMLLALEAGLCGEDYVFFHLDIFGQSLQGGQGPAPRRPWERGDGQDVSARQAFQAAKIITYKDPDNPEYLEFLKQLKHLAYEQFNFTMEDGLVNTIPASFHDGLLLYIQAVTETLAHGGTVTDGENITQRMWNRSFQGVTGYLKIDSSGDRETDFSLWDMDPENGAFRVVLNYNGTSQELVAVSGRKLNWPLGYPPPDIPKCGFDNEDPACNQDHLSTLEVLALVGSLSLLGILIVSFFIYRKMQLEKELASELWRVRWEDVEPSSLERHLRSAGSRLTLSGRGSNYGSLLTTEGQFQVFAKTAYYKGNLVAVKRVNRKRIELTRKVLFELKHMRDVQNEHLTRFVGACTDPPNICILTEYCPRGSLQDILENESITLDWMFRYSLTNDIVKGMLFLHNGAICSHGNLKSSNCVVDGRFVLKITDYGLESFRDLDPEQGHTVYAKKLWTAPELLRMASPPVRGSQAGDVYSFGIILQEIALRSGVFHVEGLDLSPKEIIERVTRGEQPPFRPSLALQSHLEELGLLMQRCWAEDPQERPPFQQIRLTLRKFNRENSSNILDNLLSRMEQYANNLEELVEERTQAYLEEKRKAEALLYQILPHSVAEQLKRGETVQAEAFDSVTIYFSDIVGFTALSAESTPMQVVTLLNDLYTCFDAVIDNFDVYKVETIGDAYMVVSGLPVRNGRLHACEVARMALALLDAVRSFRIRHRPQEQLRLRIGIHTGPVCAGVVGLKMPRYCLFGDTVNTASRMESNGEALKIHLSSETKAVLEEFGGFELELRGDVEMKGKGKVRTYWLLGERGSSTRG

[4] = target: T4, human Natriuretic Peptide Receptor 1 (hNPR1) (human, UniProt P16066 33-473, limits assumed); experiment: FabCys affinity (Biacore per paragraph 323)
T4 construct: pannings used NPR1-hFc; also called NPR1-hFc
T4 sequence: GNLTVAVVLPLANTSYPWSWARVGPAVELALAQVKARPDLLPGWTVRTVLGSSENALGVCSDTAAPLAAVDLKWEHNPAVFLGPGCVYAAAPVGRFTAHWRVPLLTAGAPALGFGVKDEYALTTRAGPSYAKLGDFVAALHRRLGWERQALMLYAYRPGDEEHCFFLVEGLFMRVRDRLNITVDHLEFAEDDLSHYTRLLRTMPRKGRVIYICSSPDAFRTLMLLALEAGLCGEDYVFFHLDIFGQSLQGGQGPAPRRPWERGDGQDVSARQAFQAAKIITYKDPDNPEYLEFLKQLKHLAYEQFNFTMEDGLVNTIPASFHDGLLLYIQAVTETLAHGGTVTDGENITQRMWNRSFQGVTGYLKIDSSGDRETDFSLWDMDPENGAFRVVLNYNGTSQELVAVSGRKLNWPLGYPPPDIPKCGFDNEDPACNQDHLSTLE

rat NPR1 (rNPR1) [5] = target: T5, rat NPR1 (rNPR1) (rat, UniProt P18910 29-469, limits assumed); experiment: FabCys affinity (Biacore per paragraph 323)
T5 construct: Soluble antigen
T5 sequence: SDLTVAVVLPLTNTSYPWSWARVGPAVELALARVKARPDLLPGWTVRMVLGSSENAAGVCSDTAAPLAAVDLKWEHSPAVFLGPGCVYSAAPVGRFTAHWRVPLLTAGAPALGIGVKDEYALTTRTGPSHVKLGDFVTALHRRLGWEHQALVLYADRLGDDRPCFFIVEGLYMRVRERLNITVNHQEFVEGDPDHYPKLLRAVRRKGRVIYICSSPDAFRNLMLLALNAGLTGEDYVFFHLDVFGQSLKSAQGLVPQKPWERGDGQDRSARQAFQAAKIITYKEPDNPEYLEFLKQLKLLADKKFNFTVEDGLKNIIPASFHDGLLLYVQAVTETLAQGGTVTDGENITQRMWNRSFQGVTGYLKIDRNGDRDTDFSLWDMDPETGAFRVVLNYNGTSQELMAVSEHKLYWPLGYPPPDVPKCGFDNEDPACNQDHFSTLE

hNPR1-ANP complex [6] = target: T6, hNPR1-ANP complex (human, UniProt P01160 124-151, limits assumed); experiment: FabCys affinity (Biacore per paragraph 323)
T6 construct: hNPR1 antigen in the presence of ANP; also called hNPR1 + 100 nM ANP
T6 sequence: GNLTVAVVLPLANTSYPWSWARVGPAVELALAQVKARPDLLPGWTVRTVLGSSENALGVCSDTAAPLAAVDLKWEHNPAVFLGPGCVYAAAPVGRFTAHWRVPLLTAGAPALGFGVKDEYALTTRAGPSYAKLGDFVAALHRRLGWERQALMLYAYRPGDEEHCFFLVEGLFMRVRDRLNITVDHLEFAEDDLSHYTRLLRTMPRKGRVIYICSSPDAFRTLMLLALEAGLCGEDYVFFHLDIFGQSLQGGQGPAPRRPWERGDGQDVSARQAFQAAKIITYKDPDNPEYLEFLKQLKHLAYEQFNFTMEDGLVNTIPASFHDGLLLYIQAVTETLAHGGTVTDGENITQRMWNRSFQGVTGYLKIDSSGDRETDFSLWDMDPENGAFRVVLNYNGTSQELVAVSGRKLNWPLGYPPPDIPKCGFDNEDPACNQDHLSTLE
T6 sequence (peptide): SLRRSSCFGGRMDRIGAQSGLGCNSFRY

rNPR1-ANP complex [7] = target: T7, rNPR1-ANP complex (rat, UniProt P01160 124-151 (human entry), limits assumed); experiment: FabCys affinity (Biacore per paragraph 323)
T7 construct: rNPR1 antigen in the presence of ANP; also called rNPR1 + 100 nM ANP
T7 sequence: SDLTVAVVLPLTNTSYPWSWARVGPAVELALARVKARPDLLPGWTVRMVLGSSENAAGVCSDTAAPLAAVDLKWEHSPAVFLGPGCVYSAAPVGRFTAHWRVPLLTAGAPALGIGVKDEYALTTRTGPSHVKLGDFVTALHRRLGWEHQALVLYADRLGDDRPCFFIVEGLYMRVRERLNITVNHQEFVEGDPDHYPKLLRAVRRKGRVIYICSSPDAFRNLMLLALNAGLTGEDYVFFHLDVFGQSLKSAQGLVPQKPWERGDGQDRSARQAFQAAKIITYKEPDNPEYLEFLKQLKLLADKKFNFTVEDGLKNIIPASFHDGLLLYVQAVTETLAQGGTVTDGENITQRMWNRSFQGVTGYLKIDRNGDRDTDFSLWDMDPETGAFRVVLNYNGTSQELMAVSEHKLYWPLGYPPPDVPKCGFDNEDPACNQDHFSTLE
T7 sequence (peptide): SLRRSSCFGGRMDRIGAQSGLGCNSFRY

[8] = target: T4, human Natriuretic Peptide Receptor 1 …; experiment: FabCys, parental value by Biacore, as in Table 5
rat NPR1 (rNPR1) [9] = target: T5, rat NPR1 (rNPR1); experiment: FabCys, parental value by Biacore, as in Table 5
hNPR1-ANP complex [10] = target: T6, hNPR1-ANP complex; experiment: FabCys, parental value by Biacore, as in Table 5
rNPR1-ANP complex [11] = target: T7, rNPR1-ANP complex; experiment: FabCys, parental value by Biacore, as in Table 5
[12] = target: T2, human NPR3 (counter target); experiment: ELISA, IgG titrated on coated antigen, fluorescence [Cont.]
[13] = target: T4, human Natriuretic Peptide Receptor 1 …; experiment: ELISA, IgG
hNPR1-ANP complex [14] = target: T6, hNPR1-ANP complex; experiment: ELISA, IgG
[15] = target: T8, human NPR1 on CHO-K1 cells in the presence of ANP (human, UniProt P01160 124-151); experiment: flow cytometry, hNPR1 CHO-K1 cells, IgG
T8 construct: also called hNPR1 CHO K1 + 100 nM ANP
T8 sequence: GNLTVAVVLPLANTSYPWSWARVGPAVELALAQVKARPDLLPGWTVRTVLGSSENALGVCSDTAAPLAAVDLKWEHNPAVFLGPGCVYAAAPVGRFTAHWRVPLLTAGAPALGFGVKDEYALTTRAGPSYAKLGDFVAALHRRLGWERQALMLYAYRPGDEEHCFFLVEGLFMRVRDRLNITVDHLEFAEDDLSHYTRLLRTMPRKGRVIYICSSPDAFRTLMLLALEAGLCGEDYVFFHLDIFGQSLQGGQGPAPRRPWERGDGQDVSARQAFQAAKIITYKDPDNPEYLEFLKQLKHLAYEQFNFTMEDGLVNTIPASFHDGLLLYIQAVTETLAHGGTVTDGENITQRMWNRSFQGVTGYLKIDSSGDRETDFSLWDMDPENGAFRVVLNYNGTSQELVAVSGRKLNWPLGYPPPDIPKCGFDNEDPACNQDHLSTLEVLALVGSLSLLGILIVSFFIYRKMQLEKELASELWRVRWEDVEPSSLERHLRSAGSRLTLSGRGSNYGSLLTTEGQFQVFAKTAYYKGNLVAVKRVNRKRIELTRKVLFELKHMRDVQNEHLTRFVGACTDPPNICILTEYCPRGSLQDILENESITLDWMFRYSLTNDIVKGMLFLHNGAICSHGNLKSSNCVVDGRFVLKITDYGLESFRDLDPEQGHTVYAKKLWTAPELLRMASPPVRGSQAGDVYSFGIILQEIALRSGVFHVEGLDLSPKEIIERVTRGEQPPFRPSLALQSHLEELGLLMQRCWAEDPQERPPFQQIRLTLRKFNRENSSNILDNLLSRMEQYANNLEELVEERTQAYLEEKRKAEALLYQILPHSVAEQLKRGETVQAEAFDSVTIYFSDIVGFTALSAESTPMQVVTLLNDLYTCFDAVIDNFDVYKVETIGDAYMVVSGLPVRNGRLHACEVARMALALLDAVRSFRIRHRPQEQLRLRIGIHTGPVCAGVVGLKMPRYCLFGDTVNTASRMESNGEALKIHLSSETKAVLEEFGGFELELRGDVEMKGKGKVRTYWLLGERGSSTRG
T8 sequence (peptide): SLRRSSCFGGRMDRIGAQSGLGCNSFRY

[16] = target: T1, human NPR3 in the presence of ANP; experiment: ELISA, IgG titrated on coated antigen with ANP (250 fold molar excess), fluorescence [Cont.]

binding result [1]	binding result [2]	cGMP conc [nM] at 2 µM FabCys, +0.075 nM ANP [3] [nM]	cGMP conc [nM] at 2 µM FabCys, without ANP [3] [nM]	Kd [4] [nM]	Kd (rat NPR1 (rNPR1) [5]) [nM]	Kd (hNPR1-ANP complex [6]) [nM]	Kd (rNPR1-ANP complex [7]) [nM]	Kd [8] [nM]	Kd (rat NPR1 (rNPR1) [9]) [nM]	Kd (hNPR1-ANP complex [10]) [nM]	Kd (rNPR1-ANP complex [11]) [nM]	binding result [12]	EC50 [13] [nM]	EC50 (hNPR1-ANP complex [14]) [nM]	flow cytometry S/BG at 2 µM IgG [15] [S/BG]	binding result [16]	Binder
no binding	no binding	108	32	1000	2600	0.1	1	1000	2600	0.1	1						WW03 (FabCys format) (Fab, V domains shown, Monovalent FabCys) VH: QVQLLESGGGLVQPGGSLRLSCAASGFTFSSYWMNWVRQAPGKGLEWVSAISSDGSYTYYADSVKGRFTISRDNSKNTLYLQMNSLRAEDTAVYYCARDRYSMIYSYGAGAFDYWGQGTLVTVSS VL: DIQMTQSPSSLSASVGDRVTITCRASQGISSYLAWYQQKPGKAPKLLIYTASTLQSGVPSRFSGSGSGTDFTLTISSLQPEDFATYYCMQSYEKPRTFGQGTKVEIK
												no binding (tested: 1000 nM)	42.7	1.4	214	no binding (tested: 1000 nM)	WW03 (IgG format) (antibody, V domains shown, also called WW03_LALA) VH: QVQLLESGGGLVQPGGSLRLSCAASGFTFSSYWMNWVRQAPGKGLEWVSAISSDGSYTYYADSVKGRFTISRDNSKNTLYLQMNSLRAEDTAVYYCARDRYSMIYSYGAGAFDYWGQGTLVTVSS VL: DIQMTQSPSSLSASVGDRVTITCRASQGISSYLAWYQQKPGKAPKLLIYTASTLQSGVPSRFSGSGSGTDFTLTISSLQPEDFATYYCMQSYEKPRTFGQGTKVEIKR
